# Experimental data: patent US20050282743A1, “Molecular interactions in cells” (Arbor Vita Corporation, priority 2001, published 2005)
# T1: GST-AF6 PDZ domain 1 (Homo sapiens (Human)), P55196
# T1 chain: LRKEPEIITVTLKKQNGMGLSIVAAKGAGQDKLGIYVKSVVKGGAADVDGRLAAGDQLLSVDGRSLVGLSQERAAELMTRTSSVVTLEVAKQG
# T2: GST-AIPC PDZ domain 1 (Homo sapiens (Human)), O15018
# T2 chain: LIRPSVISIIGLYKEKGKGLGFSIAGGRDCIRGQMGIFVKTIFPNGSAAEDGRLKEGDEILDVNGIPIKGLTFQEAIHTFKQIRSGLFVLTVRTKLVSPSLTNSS
# T3: GST-AIPC PDZ domain 4 (Homo sapiens (Human)), O15018
# T3 chain: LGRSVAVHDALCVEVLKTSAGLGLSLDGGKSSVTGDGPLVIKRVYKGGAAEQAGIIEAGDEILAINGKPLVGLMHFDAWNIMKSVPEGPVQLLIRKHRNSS
# T4: GST-DVL2 PDZ domain 1 (Homo sapiens (Human)), O14641
# T4 chain: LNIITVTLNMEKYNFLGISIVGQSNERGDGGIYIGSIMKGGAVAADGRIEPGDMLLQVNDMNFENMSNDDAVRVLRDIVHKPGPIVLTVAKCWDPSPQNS
# T5: GST-FLJ 10324 PDZ domain 1 [GST: P08515]
# T5 chain: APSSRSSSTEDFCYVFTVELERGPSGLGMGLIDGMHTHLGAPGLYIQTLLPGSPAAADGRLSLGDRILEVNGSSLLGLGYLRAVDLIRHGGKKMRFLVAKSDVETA
# T6: GST-HEMBA 1003117 PDZ domain 1 (Homo sapiens (Human)), Q96JH8
# T6 chain: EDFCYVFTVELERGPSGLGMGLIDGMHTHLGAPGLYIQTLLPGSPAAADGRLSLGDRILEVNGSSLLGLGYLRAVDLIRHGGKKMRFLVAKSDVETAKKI
# T7: GST-INADL PDZ domain 3 (Homo sapiens (Human)), Q8NI35
# T7 chain: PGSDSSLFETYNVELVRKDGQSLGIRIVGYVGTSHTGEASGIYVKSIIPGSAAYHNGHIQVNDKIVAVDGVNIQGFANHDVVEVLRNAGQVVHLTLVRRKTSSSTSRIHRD
# T8: GST-KIAA0561 PDZ domain 1 (Homo sapiens (Human)), O60307
# T8 chain: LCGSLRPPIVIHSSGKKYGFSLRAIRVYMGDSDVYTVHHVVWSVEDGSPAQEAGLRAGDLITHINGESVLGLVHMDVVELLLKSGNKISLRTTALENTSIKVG
# T9: GST-KIAA0751(L) PDZ domain 1 (Mus musculus (Mouse)), Q9EQZ7
# T9 chain: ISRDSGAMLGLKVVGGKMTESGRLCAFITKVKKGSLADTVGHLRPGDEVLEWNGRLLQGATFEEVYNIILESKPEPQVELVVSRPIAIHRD
# T10: GST-KIAA0807(S) PDZ domain 1 (Homo sapiens (Human)), Q6P0Q8
# T10 chain: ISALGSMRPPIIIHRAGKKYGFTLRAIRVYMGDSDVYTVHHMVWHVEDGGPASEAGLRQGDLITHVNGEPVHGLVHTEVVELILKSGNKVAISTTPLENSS
# T11: GST-MINT1 PDZ domains 1, 2, Q02410
# T11 chain: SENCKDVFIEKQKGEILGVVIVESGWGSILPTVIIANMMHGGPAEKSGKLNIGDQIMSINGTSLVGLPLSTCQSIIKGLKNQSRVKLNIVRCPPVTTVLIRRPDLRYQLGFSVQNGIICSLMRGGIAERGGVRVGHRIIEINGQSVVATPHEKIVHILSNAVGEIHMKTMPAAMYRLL
# T12: GST-MUPP1 PDZ domain 3 (Homo sapiens (Human)), O75970
# T12 chain: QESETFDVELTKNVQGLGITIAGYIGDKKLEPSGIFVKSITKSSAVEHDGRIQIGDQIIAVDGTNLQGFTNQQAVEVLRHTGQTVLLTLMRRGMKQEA
# T13: GST-MUPP1 PDZ domain 7 (Homo sapiens (Human)), O75970
# T13 chain: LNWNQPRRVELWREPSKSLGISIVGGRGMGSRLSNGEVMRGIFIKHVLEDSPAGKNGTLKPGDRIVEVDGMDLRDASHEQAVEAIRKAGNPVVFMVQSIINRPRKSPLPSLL
# T14: GST-MUPP1 PDZ domain 9 (Homo sapiens (Human)), O75970
# T14 chain: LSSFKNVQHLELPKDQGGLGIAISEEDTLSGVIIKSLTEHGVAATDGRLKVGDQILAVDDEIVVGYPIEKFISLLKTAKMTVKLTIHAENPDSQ
# T15: GST-NOS1 PDZ domain 1 (Homo sapiens (Human)), P29475
# T15 chain: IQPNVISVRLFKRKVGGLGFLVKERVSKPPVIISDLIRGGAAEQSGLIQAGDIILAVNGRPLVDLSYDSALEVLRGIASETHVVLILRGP
# T16: GST-PTPL1 PDZ domain 4 (Homo sapiens (Human)), Q12923
# T16 chain: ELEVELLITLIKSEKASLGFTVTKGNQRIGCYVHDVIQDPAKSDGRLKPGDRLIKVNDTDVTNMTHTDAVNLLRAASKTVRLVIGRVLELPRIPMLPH
# T17: GST-ZO-1 PDZ domain 1 (Rattus norvegicus (Rat)), A0A0G2
# T17 chain: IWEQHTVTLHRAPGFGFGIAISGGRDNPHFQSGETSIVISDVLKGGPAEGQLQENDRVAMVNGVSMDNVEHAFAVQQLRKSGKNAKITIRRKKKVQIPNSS
# T18: GST-KIAA1634 PDZ domain 2 (Homo sapiens (Human)), Q5TCQ9
# T18 chain: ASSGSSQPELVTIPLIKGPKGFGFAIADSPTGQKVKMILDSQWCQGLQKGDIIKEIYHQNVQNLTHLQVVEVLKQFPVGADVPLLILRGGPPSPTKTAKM
# T19: GST-PTPL1 PDZ domain 2 (Homo sapiens (Human)), Q12923
# T19 chain: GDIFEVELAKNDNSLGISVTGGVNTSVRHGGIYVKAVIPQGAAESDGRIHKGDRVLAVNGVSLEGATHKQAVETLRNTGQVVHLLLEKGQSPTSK
# T20: GST-NeDLG PDZ domains 1, 2, Q92796
# T20 chain: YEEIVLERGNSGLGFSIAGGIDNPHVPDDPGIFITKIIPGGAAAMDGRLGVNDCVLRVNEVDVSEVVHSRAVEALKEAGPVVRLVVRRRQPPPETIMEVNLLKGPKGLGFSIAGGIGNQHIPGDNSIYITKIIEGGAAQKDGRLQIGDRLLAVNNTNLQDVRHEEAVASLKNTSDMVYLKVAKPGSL
# T21: GST-Syntrophin 1 alpha PDZ domain 1 (Homo sapiens (Human)), Q13424
# T21 chain: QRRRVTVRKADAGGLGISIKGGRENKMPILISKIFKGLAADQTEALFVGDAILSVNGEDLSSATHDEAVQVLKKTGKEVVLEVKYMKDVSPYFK
# T22: GST-Syntrophin gamma 1 PDZ domain 1 (Homo sapiens (Human)), Q9NSN8
# T22 chain: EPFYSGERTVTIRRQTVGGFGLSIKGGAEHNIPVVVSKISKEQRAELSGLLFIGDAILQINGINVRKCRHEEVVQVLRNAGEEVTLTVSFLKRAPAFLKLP
# T23: GST-TIP1 PDZ domain 1 (Table 9 insert) (Homo sapiens (Human)), O14907
# T23 chain: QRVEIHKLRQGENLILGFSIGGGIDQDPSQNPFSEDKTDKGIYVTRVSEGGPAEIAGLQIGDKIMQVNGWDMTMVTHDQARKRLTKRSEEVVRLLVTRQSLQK
# Experiments:
# [1] = target: T1, GST-AF6 PDZ domain 1 (Homo sapiens …); test: G' assay; further: key of the grades not given here
# [2] = target: T2, GST-AIPC PDZ domain 1 (Homo sapiens …); test: G' assay; further: key of the grades not given here
# [3] = target: T3, GST-AIPC PDZ domain 4 (Homo sapiens …); test: G' assay; further: key of the grades not given here
# [4] = target: GST-Atrophin-1 Interacting Protein PDZ domain 5 (Rattus norvegicus (Rat)), O88382; test: G' assay; further: key of the grades not given here
# [5] = target: T4, GST-DVL2 PDZ domain 1 (Homo sapiens …); test: G' assay; further: key of the grades not given here
# [6] = target: T5, GST-FLJ 10324 PDZ domain 1 [GST: P08515]; test: G' assay; further: key of the grades not given here
# [7] = target: T6, GST-HEMBA 1003117 PDZ domain 1 (Homo …); test: G' assay; further: key of the grades not given here
# [8] = target: T7, GST-INADL PDZ domain 3 (Homo sapiens …); test: G' assay
# [9] = target: T8, GST-KIAA0561 PDZ domain 1 (Homo sapiens …); test: G' assay
# [10] = target: T9, GST-KIAA0751(L) PDZ domain 1 (Mus …); test: G' assay
# [11] = target: T10, GST-KIAA0807(S) PDZ domain 1 (Homo …); test: G' assay
# [12] = target: T11, GST-MINT1 PDZ domains 1, 2, Q02410; test: G' assay
# [13] = target: T12, GST-MUPP1 PDZ domain 3 (Homo sapiens …); test: G' assay
# [14] = target: T13, GST-MUPP1 PDZ domain 7 (Homo sapiens …); test: G' assay
# [15] = target: T14, GST-MUPP1 PDZ domain 9 (Homo sapiens …); test: G' assay
# [16] = target: T15, GST-NOS1 PDZ domain 1 (Homo sapiens …); test: G' assay
# [17] = target: GST-PAR3 PDZ domain 3 (Homo sapiens (Human)), Q8TEW0; test: G' assay; further: key of the grades not given here
# [18] = target: T16, GST-PTPL1 PDZ domain 4 (Homo sapiens …); test: G' assay
# [19] = target: T17, GST-ZO-1 PDZ domain 1 (Rattus …); test: G' assay
# [20] = target: T5, GST-FLJ 10324 PDZ domain 1 [GST: P08515]; test: G assay titration, PDZ 1 ug/ml
# [21] = target: T11, GST-MINT1 PDZ domains 1, 2, Q02410; test: G assay titration, PDZ 2 ug/ml
# [22] = target: T16, GST-PTPL1 PDZ domain 4 (Homo sapiens …); test: G assay titration, PDZ 3 ug/ml
# [23] = target: T13, GST-MUPP1 PDZ domain 7 (Homo sapiens …); test: G assay titration, PDZ 5 ug/ml
# [24] = target: T6, GST-HEMBA 1003117 PDZ domain 1 (Homo …); test: G assay titration, PDZ 0.5 ug/ml
# [25] = target: GST-PAR3 PDZ domain 3 (Homo sapiens (Human)), Q8TEW0; test: G assay titration, PDZ 0.5 ug/ml
# [26] = target: T18, GST-KIAA1634 PDZ domain 2 (Homo sapiens …); test: G' assay
# [27] = target: T19, GST-PTPL1 PDZ domain 2 (Homo sapiens …); test: G' assay
# [28] = target: T18, GST-KIAA1634 PDZ domain 2 (Homo sapiens …); test: G assay titration, PDZ 5 ug/ml
# [29] = target: T19, GST-PTPL1 PDZ domain 2 (Homo sapiens …); test: G assay titration, PDZ 5 ug/ml
# [30] = target: GST-BAI-1 Associated Protein PDZ domain 3 (Homo sapiens (Human)), Q96QZ7; test: G' assay; further: key of the grades not given here
# [31] = target: GST-DLG1 PDZ domains 1, 2 (Homo sapiens), Q12959; test: G' assay; further: key of the grades not given here
# [32] = target: T20, GST-NeDLG PDZ domains 1, 2, Q92796; test: G' assay
# [33] = target: GST-PSD95 PDZ domains 1, 2, 3 (Homo sapiens), P78352; test: G' assay; further: key of the grades not given here
# [34] = target: T21, GST-Syntrophin 1 alpha PDZ domain 1 …; test: G' assay
# [35] = target: T22, GST-Syntrophin gamma 1 PDZ domain 1 …; test: G' assay
# [36] = target: T23, GST-TIP1 PDZ domain 1 (Table 9 insert) …; test: G' assay
# [37] = target: T18, GST-KIAA1634 PDZ domain 2 (Homo sapiens …); test: G assay titration, PDZ 1 ug/ml
# [38] = target: T19, GST-PTPL1 PDZ domain 2 (Homo sapiens …); test: G assay titration, PDZ 0.5 ug/ml
# [39] = target: GST-PSD95 PDZ domains 1, 2, 3 (Homo sapiens), P78352; test: G assay competition vs 10 uM biotin-CD95 20-mer; competitor 100 uM
# [40] = target: GST-PSD95 PDZ domains 1, 2, 3 (Homo sapiens), P78352; test: G assay competition vs 20 uM biotin-CD46 20-mer; competitor 100 uM
# [41] = target: GST-PSD95 PDZ domains 1, 2, 3 (Homo sapiens), P78352; test: G assay competition vs 10 uM biotin-KV1.3 20-mer; competitor 100 uM
# [42] = target: GST-PSD95 PDZ domains 1, 2, 3 (Homo sapiens), P78352; test: G assay competition vs 20 uM biotin-CLASP-2 20-mer; competitor 100 uM
# Chain of GST-PSD95 PDZ domains 1, 2, 3 (Homo sapiens), P78352 (P78352 62-395): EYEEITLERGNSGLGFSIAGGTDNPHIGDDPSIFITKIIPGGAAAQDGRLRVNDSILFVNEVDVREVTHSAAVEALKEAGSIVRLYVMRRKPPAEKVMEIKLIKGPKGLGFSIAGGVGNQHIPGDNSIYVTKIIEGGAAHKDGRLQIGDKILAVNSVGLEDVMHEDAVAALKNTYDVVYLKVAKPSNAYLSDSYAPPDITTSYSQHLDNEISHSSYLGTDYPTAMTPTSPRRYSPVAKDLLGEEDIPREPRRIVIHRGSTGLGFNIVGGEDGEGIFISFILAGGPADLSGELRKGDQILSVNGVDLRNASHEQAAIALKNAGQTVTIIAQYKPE
# Chain of GST-PAR3 PDZ domain 3 (Homo sapiens (Human)), Q8TEW0 (Q8TEW0 579-681): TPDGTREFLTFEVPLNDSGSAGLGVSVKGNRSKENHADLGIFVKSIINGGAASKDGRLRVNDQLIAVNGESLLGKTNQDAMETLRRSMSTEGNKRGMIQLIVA
# Chain of GST-Atrophin-1 Interacting Protein PDZ domain 5 (Rattus norvegicus (Rat)), O88382 (O88382 1128-1225): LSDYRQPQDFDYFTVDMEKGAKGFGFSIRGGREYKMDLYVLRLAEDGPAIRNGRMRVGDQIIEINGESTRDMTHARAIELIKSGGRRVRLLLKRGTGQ
# Chain of GST-BAI-1 Associated Protein PDZ domain 3 (Homo sapiens (Human)), Q96QZ7 (Q96QZ7 other isoform, or with tags, fused parts or gaps): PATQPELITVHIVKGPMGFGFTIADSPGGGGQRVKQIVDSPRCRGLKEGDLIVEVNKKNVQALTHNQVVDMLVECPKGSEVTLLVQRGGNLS
binder,measurement,setting,value
STDNLVRPFMDTLASHQLYI (modifications not checked) [presenilin-2],Classification,[1],3 A450 class
same,Classification,[2],1 A450 class
same,Classification,[3],1 A450 class
same,Classification,[4],1 A450 class
same,Classification,[5],1 A450 class
same,Classification,[6],5 A450 class
same,Classification,[7],4 A450 class
same,Classification,[8],1 A450 class
same,Classification,[9],1 A450 class
same,Classification,[10],1 A450 class
same,Classification,[11],1 A450 class
same,Classification,[12],3 A450 class
same,Classification,[13],3 A450 class
same,Classification,[14],2 A450 class
same,Classification,[15],3 A450 class
same,Classification,[16],1 A450 class
same,Classification,[17],5 A450 class
same,Classification,[18],2 A450 class
same,Classification,[19],1 A450 class
same,Kd,[20],1 µM
same,Kd,[21],6 µM
same,Kd,[22],8 µM
same,Kd,[23],4 µM
same,Kd,[24],4 µM
same,Kd,[25],2 µM
IVTVVTMVTNVDFPPKESSL (modifications not checked) [ActRIIA],Classification,[26],2 A450 class
same,Classification,[27],3 A450 class
same,Kd,[28],5 µM
same,Kd,[29],5 µM
EDPKDRPSAAHIVEALETDV (modifications not checked) [PDZ-binding kinase (PBK)],Classification,[4],1 A450 class
same,Classification,[30],1 A450 class
same,Classification,[31],1 A450 class
same,Classification,[26],3 A450 class
same,Classification,[32],1 A450 class
same,Classification,[33],1 A450 class
same,Classification,[27],4 A450 class
same,Classification,[34],1 A450 class
same,Classification,[35],1 A450 class
same,Classification,[36],1 A450 class
same,Kd,[37],7 µM
same,Kd,[38],6 µM
REVKFTSL (modifications not checked) [CD46 8-mer],% binding of labelled 20-mer,[39],65%
same,% binding of labelled 20-mer,[40],95%
same,% binding of labelled 20-mer,[41],71%
same,% binding of labelled 20-mer,[42],81%
